Kd data for one molecule are collected here from patent US20160310424A1 (Stanford University, published 2016).

For assay [1], the target named is T1, low-density lipoprotein receptor-related protein 6 (LRP6) (UniProt O75581 20-1370, limits assumed).
T1 sequence (looked up): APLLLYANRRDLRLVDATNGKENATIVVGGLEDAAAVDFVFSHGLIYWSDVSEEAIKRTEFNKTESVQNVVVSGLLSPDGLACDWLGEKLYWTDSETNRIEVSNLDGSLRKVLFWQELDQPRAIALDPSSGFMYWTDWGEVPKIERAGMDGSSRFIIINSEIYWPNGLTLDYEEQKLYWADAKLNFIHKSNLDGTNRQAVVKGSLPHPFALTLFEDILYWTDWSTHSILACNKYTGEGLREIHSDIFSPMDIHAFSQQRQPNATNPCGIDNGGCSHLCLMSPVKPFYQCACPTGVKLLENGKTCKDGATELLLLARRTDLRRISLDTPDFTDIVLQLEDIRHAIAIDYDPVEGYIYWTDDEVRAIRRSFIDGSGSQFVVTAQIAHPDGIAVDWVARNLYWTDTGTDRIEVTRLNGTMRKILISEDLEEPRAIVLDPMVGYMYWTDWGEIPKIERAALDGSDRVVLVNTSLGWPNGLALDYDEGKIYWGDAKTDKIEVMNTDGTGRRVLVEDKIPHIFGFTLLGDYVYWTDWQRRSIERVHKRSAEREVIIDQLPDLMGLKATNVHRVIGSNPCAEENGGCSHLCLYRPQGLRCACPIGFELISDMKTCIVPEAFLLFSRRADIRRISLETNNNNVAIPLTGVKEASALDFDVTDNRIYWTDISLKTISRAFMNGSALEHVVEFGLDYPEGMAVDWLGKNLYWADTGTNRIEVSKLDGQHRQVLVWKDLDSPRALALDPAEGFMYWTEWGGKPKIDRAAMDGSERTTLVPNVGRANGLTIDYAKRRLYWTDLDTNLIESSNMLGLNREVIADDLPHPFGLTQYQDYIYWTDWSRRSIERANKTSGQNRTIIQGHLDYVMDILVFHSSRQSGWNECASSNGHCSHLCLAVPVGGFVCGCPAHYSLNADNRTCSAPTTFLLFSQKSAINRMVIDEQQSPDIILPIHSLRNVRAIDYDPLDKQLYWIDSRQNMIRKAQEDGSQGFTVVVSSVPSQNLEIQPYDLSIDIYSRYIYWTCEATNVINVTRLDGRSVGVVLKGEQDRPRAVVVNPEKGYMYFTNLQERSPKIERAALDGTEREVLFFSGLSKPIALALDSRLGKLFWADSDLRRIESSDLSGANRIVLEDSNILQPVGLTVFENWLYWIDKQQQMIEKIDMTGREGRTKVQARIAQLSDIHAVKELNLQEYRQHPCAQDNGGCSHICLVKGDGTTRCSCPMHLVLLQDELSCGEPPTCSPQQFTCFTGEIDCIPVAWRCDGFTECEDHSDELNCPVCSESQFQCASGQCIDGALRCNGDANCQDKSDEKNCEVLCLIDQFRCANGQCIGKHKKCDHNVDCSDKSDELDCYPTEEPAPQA
Briefly: binding affinity stated in the FIG. 17 legend on the pull-down assays; method behind the value not described.

Assay [2] has as its target T2, Frizzled.
T2 construct: also called Fz; Frizzled, the WNT receptor
As to the kind of experiment: binding affinity stated with the liposome/Frizzled pull-down competition assay; method behind the value not described.

B1: Human Wnt3a polypeptide (ligand)
chain: SYPIWWSLAVGPQYSSLGSQPILCASIPGLVPKQLRFCRNYVEIMPSVAEGIKIGIQECQHQFRGRRWNCTTVHDSLAIFGPVLDKATRESAFVHAIASAGVAFAVTRSCAEGTAAICGCSSRHQGSPGKGWKWGGCSEDIEFGGMVSREFADARENRPDARSAMNRHNNEAGRQAIASHMHLKCKCHGLSGSCEVKTCWWSQPDFRAIGDFLKDKYDSASEMVVEKHRESRGWVETLRPRYTYFKVPTERDLVYYEASPNFCEPNPETGSFGTRDRTCNVSSHGIDGCDLLCCGRGHNARAERRREKCRCVFHWCCYVSCQECTRVYDVHTCK
modifications: palmitoylated at S209 (paragraph 228 instead reports palmitoylation at S211 and probable myristoleylation at S139 and S181); glycosylated
notes: Secreted from CHO cells and purified on blue Sepharose; In the pull-down assays it was reconstituted into DMPC:cholesterol liposomes (L-Wnt3a); also called L-Wnt3a; L-WNT3A
Regarding B1, the Kd in assay [1] was roughly 9 nM; in assay [2] it was roughly 3.6 nM.
